According to US20070148663A1 (TRUSTEES OF COLUMBIA UNIVERSITY IN THE CITY OF NEW YORK, published 2007):
Substitutions are numbered along the chain they refer to.

B1: GST-EB1 (other, mouse, UniProt Q61166 1-268, looked up)
chain: MAVNVYSTSVTSDNLSRHDMLAWINESLQLNLTKIEQLCSGAAYCQFMDMLFPGSIALKKVKFQAKLEHEYIQNFKILQAGFKRMGVDKIIPVDKLVKGKFQDNFEFVQWFKKFFDANYDGKEYDPVAARQGQETAVAPSLVAPALSKPKKPLGSSTAAPQRPIATQRTTAAPKAGPGMVRKNPGVGNGDDEAAELMQQVKVLKLTVEDLEKERDFYFGKLRNIELICQENEGENDPVLQRIVDILYATDEGFVIPDEGGPQEEQEEY
notes: not shown: glutathione S-transferase (GST) tag, N-terminal, vector pGEX-2T
B2: GST-APC-C1 (amino acids 2674-2843) (other, UniProt P25054 2674-2843, looked up)
chain: SPTGNTPPVIDSVSEKANPNIKDSKDNQAKQNVGNGSVPMRTVGLENRLNSFIQVDAPDQKGTEIKPGQNNPVPVSETNESSIVERTPFSSSSSSKHSSPSGTVAARVTPFNYNPSPRKSSADSTSARPSQIPTPVNNNTKKRDSKTDSTESSGTQSPKRHSGSYLVTSV
notes: range 2674-2843; Gift from R. Baer; not shown: glutathione S-transferase (GST) tag
B3: mDia2 FH1 domain fragment, in vitro transcribed and translated, 35S-labelled (other, UniProt Q9Z207 540-610, looked up)
chain: PLQPSVEGEAGPSALPPAPPALSGGVPPPPPPPPPPPPPLPGMPMPFGGPVPPPPPLGFLGGQSSIPLNLP
modifications: 35S-methionine label
notes: domain: FH1
B4: GST-EB1-C (other, mouse, UniProt Q61166 165-268, looked up)
chain: ATQRTTAAPKAGPGMVRKNPGVGNGDDEAAELMQQVKVLKLTVEDLEKERDFYFGKLRNIELICQENEGENDPVLQRIVDILYATDEGFVIPDEGGPQEEQEEY
notes: range 165-268; also called glutathione S-transferase fused to EB1-C; not shown: glutathione S-transferase (GST) tag, N-terminal, vector pGEX-2T
B5: EB1-C-EEKR-GFP (other, mouse, UniProt Q61166 165-268, looked up)
chain: B4 chain with E47A, E49A, K56A, R58A
notes: range 165-268; not shown: GFP tag (vector pGFP-NKB)
B6: EB1-C-KR-GFP (other, mouse, UniProt Q61166 165-268, looked up)
chain: B4 chain with K56A, R58A
notes: as for B5

Tests used:
[1] = target: T1, mDia2 FH2 domain fragment, in vitro transcribed and translated, 35S-labelled (UniProt Q9Z207 615-1013, limits assumed, 35S-methionine label); assay: GST pull-down of 35S-labelled in vitro translated protein, autoradiography
T1 construct: domain: FH2
T1 sequence (Q9Z207 615-1013 limits assumed): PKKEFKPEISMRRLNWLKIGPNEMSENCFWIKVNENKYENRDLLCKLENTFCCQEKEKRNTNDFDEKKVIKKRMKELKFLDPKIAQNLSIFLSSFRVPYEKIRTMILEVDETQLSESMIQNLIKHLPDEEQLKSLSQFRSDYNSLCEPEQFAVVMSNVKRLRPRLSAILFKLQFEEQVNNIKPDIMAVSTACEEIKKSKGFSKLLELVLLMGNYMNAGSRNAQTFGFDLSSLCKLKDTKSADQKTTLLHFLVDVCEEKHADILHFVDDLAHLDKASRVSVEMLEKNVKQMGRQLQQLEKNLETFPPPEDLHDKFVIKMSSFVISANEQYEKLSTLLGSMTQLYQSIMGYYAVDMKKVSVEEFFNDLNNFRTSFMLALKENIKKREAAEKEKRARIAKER
Excerpt: (§1) EB1 and APC interact with mDia. (a) Binding of in vitro transcribed and translated ³⁵S-labelled ΔGBD-mDia2 to the indicated GST-tagged constructs of EB1 and APC (bottom). Arrows indicate full-length GST-APC-C or GST-APC-basic proteins. Additional bands detected in the GST-APC-C and GST-APC-basic lanes are presumed to be breakdown products. (b) Binding of in vitro transcribed and translated ³⁵S-labelled mDia2 fragments to GST-EB1, GST and GST-APC-C. (c) Binding of Flag-mDia1 expressed in COS-7 cells to GST-EB1 and GST-APC-C in the presence of DMSO, nocodazole (NZ) and latrunculin A (Lat A). Bound proteins were detected by western blotting with antibodies to Flag-mDia1, tubulin and actin. […] Bound His-mDia was detected by western blotting with an anti-His antibody. (e) Endogenous mDia1 and EB1 co-immunoprecipitate with APC. Mouse brain extracts and COS-7 cell lysates were immunoprecipitated with APC antibodies and precipitates analyzed for APC, mDia1 and EB1 by western blotting with the indicated antibodies. IgG, non-immune immunoglobulin G used for control immunoprecipitation. (f) Schematic representation of the interactions between mDia, EB1 and APC. EB1 and APC bind to mDia through different domains than they use to bind to each other. Note that although EB1 and APC bind to the FH1-FH2 region of mDia, the individual binding sites within this domain have not been mapped. The molecules are not drawn to scale.
(§2) mDia2 transcripts labeled with ³⁵S-methionine (Amersham Biosciences) were generated with Quick-Coupled Transcription/Translation Systems (Promega). Equal molar amounts of GST, GST-EB1 or GST-APC on beads were incubated with labeled transcripts for 2 h at 4° C. in PBS containing 1% Triton X-100 and protease inhibitors. After washing, bound proteins were eluted with SDS sample buffer and analyzed by SDS-PAGE. Gels were incubated for 15-30 min in Amplify (Amersham Biosciences), dried and autoradiographed for 1-24 h. Flag-mDia1 (40) was transfected into COS-7 cells, lysates prepared and treated with 0.5 μM latrunculin A, 10 μM nocodazole or DMSO for 1 h on ice.

ΔGBDΔDADG(YEKR)-mDia2 = target: T2, ΔGBDΔDADG(YEKR)-mDia2 (UniProt Q9Z207 258-1030, limits assumed, 35S-methionine label (in the binding assay)); assay: as above
T2 construct: a GFP-myc-tagged form was expressed in 3T3 cells for the Glu-MT assay; also called G(YEKR) mutation
T2 sequence (Q9Z207 other isoform, or with tags, fused parts or gaps mutant limits assumed): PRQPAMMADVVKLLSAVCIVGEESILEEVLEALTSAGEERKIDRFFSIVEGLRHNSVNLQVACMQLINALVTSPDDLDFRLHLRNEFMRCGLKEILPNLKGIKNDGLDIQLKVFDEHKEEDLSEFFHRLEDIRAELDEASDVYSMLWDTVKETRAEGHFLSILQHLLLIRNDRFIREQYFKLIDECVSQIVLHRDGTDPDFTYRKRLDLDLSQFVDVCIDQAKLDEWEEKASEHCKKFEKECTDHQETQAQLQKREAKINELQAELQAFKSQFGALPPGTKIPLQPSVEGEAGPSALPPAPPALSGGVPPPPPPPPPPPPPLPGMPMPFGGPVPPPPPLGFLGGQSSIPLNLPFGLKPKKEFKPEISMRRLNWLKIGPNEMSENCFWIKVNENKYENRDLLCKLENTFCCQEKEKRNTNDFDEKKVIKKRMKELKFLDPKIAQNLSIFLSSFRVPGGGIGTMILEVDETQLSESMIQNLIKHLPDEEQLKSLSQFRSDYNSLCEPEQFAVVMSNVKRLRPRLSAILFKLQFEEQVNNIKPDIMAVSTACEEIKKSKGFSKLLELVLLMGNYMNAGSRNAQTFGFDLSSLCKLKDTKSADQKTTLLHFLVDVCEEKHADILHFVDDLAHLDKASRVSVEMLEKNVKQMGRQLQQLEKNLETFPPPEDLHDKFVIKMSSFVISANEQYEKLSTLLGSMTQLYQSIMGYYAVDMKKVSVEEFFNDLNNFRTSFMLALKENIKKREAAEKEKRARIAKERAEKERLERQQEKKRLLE
Excerpt: as §1, §2

[2] = target: T3, His-521-1040-mDia2 (purified recombinant protein) (UniProt Q9Z207 521-1040); assay: direct binding of purified recombinant proteins, GST pull-down, anti-His western blot
T3 construct: also called His-mDia; not shown: His tag of vector pQE-30 (detected with RGS-His antibody)
T3 sequence (Q9Z207 521-1040): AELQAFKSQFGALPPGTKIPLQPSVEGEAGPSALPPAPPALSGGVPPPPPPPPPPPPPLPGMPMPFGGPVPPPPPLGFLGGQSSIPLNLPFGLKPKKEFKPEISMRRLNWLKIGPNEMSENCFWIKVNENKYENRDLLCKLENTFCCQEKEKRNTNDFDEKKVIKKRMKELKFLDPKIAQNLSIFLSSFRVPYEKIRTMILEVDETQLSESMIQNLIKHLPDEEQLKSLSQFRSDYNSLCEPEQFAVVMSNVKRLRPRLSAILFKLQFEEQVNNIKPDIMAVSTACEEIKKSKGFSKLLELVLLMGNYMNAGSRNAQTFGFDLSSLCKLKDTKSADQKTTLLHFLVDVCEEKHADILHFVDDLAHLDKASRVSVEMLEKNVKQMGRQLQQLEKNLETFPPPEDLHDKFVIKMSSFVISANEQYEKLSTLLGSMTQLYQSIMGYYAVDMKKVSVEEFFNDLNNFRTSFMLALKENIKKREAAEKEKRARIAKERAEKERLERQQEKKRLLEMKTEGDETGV
Excerpt: Bound proteins were detected by western blotting with antibodies to Flag-mDia1, tubulin and actin. […] Bound His-mDia was detected by western blotting with an anti-His antibody. (e) Endogenous mDia1 and EB1 co-immunoprecipitate with APC. Mouse brain extracts and COS-7 cell lysates were immunoprecipitated with APC antibodies and precipitates analyzed for APC, mDia1 and EB1 by western blotting with the indicated antibodies. IgG, non-immune immunoglobulin G used for control immunoprecipitation. (f) Schematic representation of the interactions between mDia, EB1 and APC. EB1 and APC bind to mDia through different domains than they use to bind to each other. Note that although EB1 and APC bind to the FH1-FH2 region of mDia, the individual binding sites within this domain have not been mapped. The molecules are not drawn to scale.
mDia2 transcripts labeled with ³⁵S-methionine (Amersham Biosciences) were generated with Quick-Coupled Transcription/Translation Systems (Promega). […] After washing, bound proteins were eluted with SDS sample buffer and analyzed by SDS-PAGE. […] The treated lysates were incubated with GST-tagged constructs as described above and analyzed by western blotting with mouse anti-Flag-M2 antibody (1:10,000; Sigma), rabbit anti-tubulin10 (W2; 1:50,000) and mouse anti-actin (C4D6; 1:50,000). […] Bound proteins were analyzed by western blotting with mouse RGS-His antibody (1:10,000).

[3] = target: T4, GST-APC-C (amino acids 2167-2843) (UniProt P25054 2167-2843); assay: GST pull-down of 35S-labelled in vitro translated protein, autoradiography
T4 construct: range 2167-2843; Gift from R. Baer; not shown: glutathione S-transferase (GST) tag
Excerpt: as §1, §2

GST-EB1 = target: B1; assay: as above
Excerpt: as §1, §2

[4] = target: B2; assay: GST pull-down from COS-7 lysates, anti-GFP western blot
Excerpt: Residues of EB1 that were mutated to the indicated residues (below) are shaded in grey. (b) Diagram of GST-APC constructs used in this study. APC has a microtubule-binding site (labeled ‘Basic’) and a separate EB1-binding site in its C-terminus. (c) Pull-down analysis of wild type (WT) EB1-C-GFP and mutant EB1-C-GFPs by GST-APC-C1 and GST-p150^Glued (1-330). Western blots were probed with anti-GFP antibody. (d) The ability of EB1-C-GFP wild type (WT) and mutants to inhibit LPA-stimulated Glu-MTs in serum-starved 3T3 cells. All EB1-C-GFP constructs were expressed at equivalent levels on the basis of GFP fluorescence. Error bars represent the standard error from at least three independent experiments. (e) EB1-GFP and EB1-C-GFP interact with endogenous APC in cells. COS-7 cells were transiently transfected and immunoprecipitated as indicated. Western blots of the immunoprecipitates were probed with EB1 antibody. […] Cells expressing APC (untagged) were detected with antibody to APC. […]
For binding of wild-type and mutant EB1-C-GFP to APC or p150^Glued, COS-7 cells were transfected with EB1-C-GFP constructs and lysed in PBS containing 1% Triton X-100 and protease inhibitors. […] Bound proteins were analyzed by western blotting with rabbit anti-GFP (1:10,000; BD Transduction Laboratory). […] Bound proteins were eluted with SDS sample buffer and analyzed by western blotting for EB1.

Row | binding result [2] | binding result [4] | Binder | further results
1 | – | – | B1 | binding result [1]: no binding; binding result (ΔGBDΔDADG(YEKR)-mDia2): no binding
2 | no binding (tested: 0.3 µM) | – | B2 | –
3 | – | – | B3 | binding result [3]: no binding; binding result (GST-EB1): no binding
4 | no binding (tested: 0.3 µM) | – | B4 | –
5 | – | no binding | B5 | –
6 | – | no binding | B6 | –
